Results published in US20140234351A1, “CANCER VACCINES AND VACCINATION METHODS” (ImmunoCellular Therapeutics, Ltd., priority 2013, published 2014).

Biological target: HLA-A*0201 molecules on TAP-deficient T2 cells (human)
Test: T2 cell binding assay, fluorescence index (MFI peptide - MFI untreated)/MFI untreated
Conditions: remark: other sources report otherwise

MFI index: > 1.5
B1: HER2/neu 773-782 HLA-A2 peptide (peptide)
peptide: VMAGVGSPYV
